Test results as given in article PMC7887213 (Nature Communications, 2021).

Key:
Conditions in all cases: both partners purified
[1] = biological target: T1, Ac-[residues removed]-NH2 (NPNA6 peptide) (Plasmodium falciparum (synthetic CSP …)); assay: ITC; peptide in the syringe, Fab (~10 uM) in the cell; DPBS, 25 °C; single-site binding model; triplicate, mean ± SD; No. of sites = peptide per Fab
T1 construct: also called 24-mer peptide; source: synthetic peptide; bought: Innopep Inc

[2] = biological target: T2, Ac-[residues removed]-NH2 (NPNA2 peptide) (Plasmodium falciparum (synthetic CSP …)); assay: as above
T2 construct: also called 8-mer peptide; source: synthetic peptide; bought: Innopep Inc

[3] = biological target: T3, Ac-[residues removed]-NH2 (NPNA4 peptide) (Plasmodium falciparum (synthetic CSP …)); assay: as above
T3 construct: also called 16-mer peptide; source: synthetic peptide; bought: Innopep Inc

[4] = biological target: T4, NPNA2 peptide (Ac-[residues removed]-NH2) (Plasmodium falciparum (synthetic CSP …); assay: ITC; peptide in the syringe, Fab (~10 uM) in the cell; DPBS; 25 C; single-site binding model; triplicate; apparent affinity
T4 construct: source: synthetic peptide, bought: Innopep Inc

[5] = biological target: T5, NPNA6 peptide (Ac-[residues removed]-NH2) (Plasmodium falciparum (synthetic CSP …); assay: as above
T5 construct: source: synthetic peptide, bought: Innopep Inc

[6] = biological target: T6, NPNA4 peptide (Ac-[residues removed]-NH2) (Plasmodium falciparum (synthetic CSP …); assay: as above
T6 construct: source: synthetic peptide, bought: Innopep Inc

Binder	stoichiometry N [1]	stoichiometry N [2]	stoichiometry N [3]	Kd [4] [nM]	Kd [5] [nM]	Kd [6] [nM]
Fab239 (Fab, V domains shown, also called mAb239; source: ExpiCHO cells, purified (HiTrap Protein G, SEC)) VH: QVQLVESGGGVVQPGRSLRLSCAASRLTFRNFGMHWVRQTPGKGLEWVAVIWHDGSNKFYADSVEGRFTISRDNSKNTLYLQMNSLRDEDTAIYYCAKDWGGASDRVFDYWGRGTLVIVSS VL: DIQMTQSPSTLSASVGDRVTITCRASQSVSTSLAWYQQKPGKAPNLLIYQASTLYRGVPSRFSGSGSGTEFTLTIGSLQPDDFATYYCQHYNSYSRITFGQGTRLEIK [Fab239, listing 1 of 2 here]	0.348	1.34	0.572			
Fab364 (Fab, V domains shown, also called mAb364; source: ExpiCHO cells, purified (HiTrap Protein G, SEC)) VH: QVQLVESGGGVVQPGGSLRLSCAASGFTFSGYGMHWVRQVPGKGLEWVAIIWFDGSQKYYADSVQGRFTISRDNSKKTLFLRMNSLRAEDTAVYYCAKVHDDEPTQDYWGQGTLVTVSS VL: DIQMTQSPSTLSASVGDRVTITCRASQGISTSLAWYQQKPGKAPKLLIYKASSLESGVPSRFSGSGSGTEFTLTITSLQPEDFATYYCQQYKRYWTFGQGTKVEIK [Fab364, listing 1 of 2 here]	0.445	1.41	0.634			
Fab395 (Fab, V domains shown, also called mAb395; source: ExpiCHO cells, purified (HiTrap Protein G, SEC)) VH: QEQLVESGGGVVQPGRSLRLSCAAASEFCFSCYGMHWVRQAPGKGLEWVAVIWHDGSNQHFADSVKGRFTISRDNSKNIMYLQMNSLRAEDTAVYYCASATRYDILTGAFDYWGQGTLVTVSS VL: DIQMTQSPSTLSASVGDRVTITCRASQSISTWLAWYQQKPGKAPKLLIYKASSLESGVPSRFSGSGSGTEFTLTISSLQPDDFATYYCQQYSRYWTFGQGTKVEIK	0.432	1.35	0.608			
Fab224 (Fab, V domains shown, also called mAb224; source: ExpiCHO cells, purified (HiTrap Protein G, SEC)) VH: EVQLVESGGGLVQPGRSLRLPCTASGFSFGDHAMSWVRQAPGKGLEWVGFIRKTTYGATTHYAAAVRGRFTISRDDSKSIVYLQMNSLKTEDTAVYFCTRVQLDYGPGYQYYGMDVWGQGTTVTVSS VL: ESVLTQPPSVSGAPGQRVTISCTGMNSNIGAGYDVYWYQQLPGRAPKLLIYGNSNRPSGVPDRFSGSRSGTSASLAITGLQAEDEADYYCQSYDTSLNGWAFGGGTKLTVL [Fab224, listing 1 of 2 here]	0.749	1.59	1.26			
Fab366 (Fab, V domains shown, also called mAb366; source: ExpiCHO cells, purified (HiTrap Protein G, SEC)) VH: QVQLVQSGAEVKKPGASARVSCKASGYTLTDFYLHWVRQAPGQGLEWMGWLNPHSGGTNYAQKFLGRVSMTRDTSISTAYMELNKLISDDTAVYFCVRSDQEALRGAFDIWGQGTMVFVSS VL: DIQMTQSPSSLSASVGDTVTITCRASQSINDYLNWYQQKPGKAPKLLIYATSSLHSGVPSRFSGSGFGTDFTLTISSLQPEDSATYLCQQSHSLWTFGQGTKVEVK	0.67	1.21	1.21			
Fab397 (Fab, V domains shown, also called mAb397; source: ExpiCHO cells, purified (HiTrap Protein G, SEC)) VH: EVQLVKSGGGLVKPGGSLRLSCAVSGFTFTDAWMSWVRQAPGKGPEWVGRIKSNPDGGTTDYAAPVRGRFTISRDDSKNTLYLQMNNLKTEDTAVYYCITDRDFYRSGGSWGQGTLVTV VL: DIVMTQSPLSLPVTPGEPASISCRSRQSLLYSNGDNYLDWYLQKPGQSPQLLIYLGSNRAPGVPDRFSGSGSGTDFTLKISRVEAEDVGVYYCMQTLQTPHTFGQGTKLEIK [Fab397, listing 1 of 2 here]	0.73	1.18	1.3			
Fab399 (Fab, V domains shown, also called mAb399; source: ExpiCHO cells, purified (HiTrap Protein G, SEC)) VH: EVQLVESGGGLVQPGRSLRLSCTTSGFTFGDYAMSWFRQAPGKGLEWVGFIRSKGFGGTAEYAAFVKGRFTISRDDSRSIAYLQMTSLKPEDTAVYYCSRVGVVIATAVYWGQGTLVTVSS VL: DILMTQTPLSLSVTPGQPASISCKSSQSLLDNDGKTYLYWYLQKPGQSPQLLIYEVSNRFSGVPERFSGSGSGTDFTLKIRRVEAEDVGVYYCMQRIDLPWTFGQGTKVEIK	0.737	3.23	1.74			
Fab317 (Fab, V domains shown, also called mAb317; source: ExpiCHO cells, purified (HiTrap Protein G, SEC)) VH: QMQLVESGGGVVQPGRSLRLSCTASGFTFSTYAMHWVRQSPGQGLQWVAVISYHSTNKYYEDSVRGRFTISRDNSKNTLYLQMNSLRAEDTAVYYCARDGYSSSFFDFWGQGTLVTVSS VL: DIQMTQSPSTLSASVGDRVAITCRASQSISRWLAWYQQQPGKAPKLLMSGASVLESGVPSRFSGSGSGTEFTLTISSLQPDDFATYYCQHYNSYFVTFGQGTKVEIK [Fab317, listing 1 of 2 here]	0.723	1.36	0.95			
Fab311 (Fab, V domains shown, also called mAb311; source: ExpiCHO cells, purified (HiTrap Protein G, SEC)) VH: EVQLVESGGGVVPPGRSLRLSCATSGFTFSNYGMHWVRQAPGKGLEWVAIIWYDGSRNFYAASVEGRFTISRDNSKNTLYLQMNSLRVEDTAVYYCARAAYYDTSGYGDYWGQGTLVTVSS VL: ESVLTQPPSVSGAPGQTVTISCTGGSSNIGAGYDVHWYQQLPGTAPKLLIYGNINRPSGVPDRFSGSKSGTSASLAITGLQAEDEADYYCQSYDRRLSGSWVFGGGTKLTVL [Fab311, listing 1 of 2 here]	0.386	1.27	0.578			
Fab356 (Fab, V domains shown, also called mAb356; source: ExpiCHO cells, purified (HiTrap Protein G, SEC)) VH: VQLVESGGGVVQPGRSLRLSCAASGFTFRNFGMHWVRQTPGKGLEWVAVIWHDGSNKFYADSVEGRFTISRDNSKNMIYLQMNSLRVEDTAIYYCARDSLFYDHDNSGYYGYWGQGTLVTVSS VL: QIVMTQSPATVSVSPGERATLSCRASRSVTSKLAWYQQKPGQAPRLLIYGASTRATGIPARFSGSGSGTEFTLTISSLQSEDFAVYFCQQYNNGFTFGPGTKVDFK [Fab356, listing 1 of 2 here]	0.354	1.29	0.542			
Fab239 (Fab, V domains shown, also called mAb239; source: ExpiCHO cells, purified (HiTrap Protein G, SEC)) VH: QVQLVESGGGVVQPGRSLRLSCAASRLTFRNFGMHWVRQTPGKGLEWVAVIWHDGSNKFYADSVEGRFTISRDNSKNTLYLQMNSLRDEDTAIYYCAKDWGGASDRVFDYWGRGTLVIVSS VL: DIQMTQSPSTLSASVGDRVTITCRASQSVSTSLAWYQQKPGKAPNLLIYQASTLYRGVPSRFSGSGSGTEFTLTIGSLQPDDFATYYCQHYNSYSRITFGQGTRLEIK [Fab239, listing 2 of 2 here]				641	10	20
Fab364 (Fab, V domains shown, also called mAb364; source: ExpiCHO cells, purified (HiTrap Protein G, SEC)) VH: QVQLVESGGGVVQPGGSLRLSCAASGFTFSGYGMHWVRQVPGKGLEWVAIIWFDGSQKYYADSVQGRFTISRDNSKKTLFLRMNSLRAEDTAVYYCAKVHDDEPTQDYWGQGTLVTVSS VL: DIQMTQSPSTLSASVGDRVTITCRASQGISTSLAWYQQKPGKAPKLLIYKASSLESGVPSRFSGSGSGTEFTLTITSLQPEDFATYYCQQYKRYWTFGQGTKVEIK [Fab364, listing 2 of 2 here]				47	27	28
Fab224 (Fab, V domains shown, also called mAb224; source: ExpiCHO cells, purified (HiTrap Protein G, SEC)) VH: EVQLVESGGGLVQPGRSLRLPCTASGFSFGDHAMSWVRQAPGKGLEWVGFIRKTTYGATTHYAAAVRGRFTISRDDSKSIVYLQMNSLKTEDTAVYFCTRVQLDYGPGYQYYGMDVWGQGTTVTVSS VL: ESVLTQPPSVSGAPGQRVTISCTGMNSNIGAGYDVYWYQQLPGRAPKLLIYGNSNRPSGVPDRFSGSRSGTSASLAITGLQAEDEADYYCQSYDTSLNGWAFGGGTKLTVL [Fab224, listing 2 of 2 here]				14200	141	126
Fab397 (Fab, V domains shown, also called mAb397; source: ExpiCHO cells, purified (HiTrap Protein G, SEC)) VH: EVQLVKSGGGLVKPGGSLRLSCAVSGFTFTDAWMSWVRQAPGKGPEWVGRIKSNPDGGTTDYAAPVRGRFTISRDDSKNTLYLQMNNLKTEDTAVYYCITDRDFYRSGGSWGQGTLVTV VL: DIVMTQSPLSLPVTPGEPASISCRSRQSLLYSNGDNYLDWYLQKPGQSPQLLIYLGSNRAPGVPDRFSGSGSGTDFTLKISRVEAEDVGVYYCMQTLQTPHTFGQGTKLEIK [Fab397, listing 2 of 2 here]				2740	92	255
Fab317 (Fab, V domains shown, also called mAb317; source: ExpiCHO cells, purified (HiTrap Protein G, SEC)) VH: QMQLVESGGGVVQPGRSLRLSCTASGFTFSTYAMHWVRQSPGQGLQWVAVISYHSTNKYYEDSVRGRFTISRDNSKNTLYLQMNSLRAEDTAVYYCARDGYSSSFFDFWGQGTLVTVSS VL: DIQMTQSPSTLSASVGDRVAITCRASQSISRWLAWYQQQPGKAPKLLMSGASVLESGVPSRFSGSGSGTEFTLTISSLQPDDFATYYCQHYNSYFVTFGQGTKVEIK [Fab317, listing 2 of 2 here]				132	111	70
Fab311 (Fab, V domains shown, also called mAb311; source: ExpiCHO cells, purified (HiTrap Protein G, SEC)) VH: EVQLVESGGGVVPPGRSLRLSCATSGFTFSNYGMHWVRQAPGKGLEWVAIIWYDGSRNFYAASVEGRFTISRDNSKNTLYLQMNSLRVEDTAVYYCARAAYYDTSGYGDYWGQGTLVTVSS VL: ESVLTQPPSVSGAPGQTVTISCTGGSSNIGAGYDVHWYQQLPGTAPKLLIYGNINRPSGVPDRFSGSKSGTSASLAITGLQAEDEADYYCQSYDRRLSGSWVFGGGTKLTVL [Fab311, listing 2 of 2 here]				152	19	
Fab356 (Fab, V domains shown, also called mAb356; source: ExpiCHO cells, purified (HiTrap Protein G, SEC)) VH: VQLVESGGGVVQPGRSLRLSCAASGFTFRNFGMHWVRQTPGKGLEWVAVIWHDGSNKFYADSVEGRFTISRDNSKNMIYLQMNSLRVEDTAIYYCARDSLFYDHDNSGYYGYWGQGTLVTVSS VL: QIVMTQSPATVSVSPGERATLSCRASRSVTSKLAWYQQKPGQAPRLLIYGASTRATGIPARFSGSGSGTEFTLTISSLQSEDFAVYFCQQYNNGFTFGPGTKVDFK [Fab356, listing 2 of 2 here]				8270	30	82
